Test results published in patent publication US5459256A, “Lipophilic, aminohydrolase-activated prodrugs” (priority 1991, dated 1995).

Tests used:
[1] = test system: HIV-1/IIIB (CD4^+ ATH8 cells); assay: HIV cytopathic effect inhibition assay in ATH8 cells (% protection); assay type: cell-based; conditions: additive alone, no test compound
Experimental: (§1) HIV Cytopathic Effect Inhibition Assay.
The HIV cytopathic effect inhibition assay was performed as previously described. (Mitsuya, H. & Broder, S. Proc. Nat. Acad. Sci. USA 1986, 83, 1911) Briefly, 200,000 target CD4^+ ATH8 cells were exposed to cell-free HIV-1/IIIB at a dose of 43 (or 1087 for compound 1g) TCID50 (50% tissue culture infectious dose) for 1 h, resuspended in 2 ml of fresh culture media containing interleukin 2, and cultured at 37° C. with or without test compounds in 5% CO2 -containing humidified air. On day 8 in culture, the viable cells were counted by using the dye exclusion method. All compounds, including inactives, were evaluated a minimum of two times in separate experiments. […] The % protection against the virus was determined by the following formula: 100 times [(the number of viable cells exposed to HIV-1 and cultured in the presence of the compound minus the number of viable cells exposed to HIV-1 and cultured in the absence of compound) divided by (the number of viable cells cultured alone minus the number of viable cells exposed to HIV-1 and cultured in the absence of the compound)]. The % toxicity of a compound on the target cells was determined by the following formula: 100 times [1 minus (the number of total viable cells cultured in the presence of the compound divided by the number of total viable cells cultured alone)]. […]

[2] = test system: CD4^+ ATH8 cells; assay: Toxicity on ATH8 target cells (% toxicity, dye exclusion); assay type: cell-based; conditions: additive alone, no test compound
Experimental: as §1
The HIV cytopathic effect inhibition assay was performed as previously described. […] On day 8 in culture, the viable cells were counted by using the dye exclusion method. All compounds, including inactives, were evaluated a minimum of two times in separate experiments. Data reported in Table II are from representative tests. The % protection against the virus was determined by the following formula: 100 times [(the number of viable cells exposed to HIV-1 and cultured in the presence of the compound minus the number of viable cells exposed to HIV-1 and cultured in the absence of compound) divided by (the number of viable cells cultured alone minus the number of viable cells exposed to HIV-1 and cultured in the absence of the compound)]. The % toxicity of a compound on the target cells was determined by the following formula: 100 times [1 minus (the number of total viable cells cultured in the presence of the compound divided by the number of total viable cells cultured alone)]. Calculated percentages equal to or less than zero are expressed as 0%.

B1: ADA: adenosine deaminase (adenosine aminohydrolase, EC 3.5.4.4) from calf intestinal mucosa (protein, UniProt P56658 2-363, looked up)
Adenosine deaminase: AQTPAFNKPKVELHVHLDGAIKPETILYYGRKRGIALPADTPEELQNIIGMDKPLSLPEFLAKFDYYMPAIAGCREAVKRIAYEFVEMKAKDGVVYVEVRYSPHLLANSKVEPIPWNQAEGDLTPDEVVSLVNQGLQEGERDFGVKVRSILCCMRHQPSWSSEVVELCKKYREQTVVAIDLAGDETIEGSSLFPGHVKAYAEAVKSGVHRTVHAGEVGSANVVKEAVDTLKTERLGHGYHTLEDATLYNRLRQENMHFEVCPWSSYLTGAWKPDTEHPVVRFKNDQVNYSLNTDDPLIFKSTLDTDYQMTKNEMGFTEEEFKRLNINAAKSSFLPEDEKKELLDLLYKAYGMPSPASAEQCL
protection by additive alone (in words) [1]: neither influenced the viability nor protected infected ATH8 cells | toxicity / viability effect of additive alone (in words) [2]: neither influenced the viability
